Results taken from patent publication US20260216326A1 (PROMETHEUS BIOSCIENCES, published 2026).

T1: human TL1A (human, UniProt O95150 72-251, limits assumed)
T1 construct: also called tumor necrosis factor-like cytokine 1A; TNFSF15
T1 sequence (looked up): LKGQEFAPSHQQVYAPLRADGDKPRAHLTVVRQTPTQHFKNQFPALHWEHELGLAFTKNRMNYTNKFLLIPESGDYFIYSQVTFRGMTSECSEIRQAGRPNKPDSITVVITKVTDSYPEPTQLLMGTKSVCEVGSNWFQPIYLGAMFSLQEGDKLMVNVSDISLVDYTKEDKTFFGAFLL


Target: T1, human TL1A
Test: ELISA titration on plate-coated human TL1A, unpurified culture supernatant

Row | Binder | Kd [nM]
1 | A180 (antibody, IgG1, V domains shown) VH: QVQLVQSGAEVKKPGASVKVSCKASGFDIQDTYMHWVRQAPGQGLEWMGRIEPASGHIKYDPKFQGRATMTRDTSTSTAYMELSSLRSEDTAVYYCARSGGLPDWWGQGTTVTVSS VL: EIVLTQSPGTLSLSPGERATLSCRASSSVSYMYWYQQKPGQAPRPLIYATSNLASGIPDRFSGSGSGTDFTLTISRLEPEDFAVYYCQQWEGNPRTFGGGTKLEIK | 0.058
2 | A181 (antibody, IgG1, V domains shown) VH: QVQLVQSGAEVKKPGASVKVSCKASGFDIQDTYMHWVRQRPGQGLEWIGRIDPASGHTKYDPKFQVRATITTDTSTSTAYLELSSLRSEDTAVYYCARSGGLPDVWGQGTTVTVSS VL: EIVLTQSPGTLSLSPGERATLSCRASSSVSYMYWYQQKPGQAPRLLIYATSNLASGIPDRFSGSGSGTDFTLTISRLEPEDFAVYYCQQWEGNPRTFGGGTKLEIK | 0.06
3 | A182 (antibody, IgG1, V domains shown) VH: QVQLVQSGAEVKKPGASVKVSCKASGFDIQDTYMHWVKQAPGQGLEWIGRIDPASGHTKYDPKFQVRATITTDTSTSTAYLELSSLRSEDTAVYYCARSGGLPDVWGQGTTVTVSS VL: EIVLTQSPGTLSLSPGERATLSCRASSSVSYMYWYQQKPGQAPRLLIYATSNLASGIPDRFSGSGSGTDFTLTISRLEPEDFAVYYCQQWEGNPRTFGGGTKLEIK | 0.067
4 | A183 (antibody, IgG1, V domains shown) VH: QVQLVQSGAEVKKPGASVKVSCKASGFDIQDTYMHWVKQRPGQGLEWMGRIDPASGHTKYDPKFQVRATITTDTSTSTAYLELSSLRSEDTAVYYCARSGGLPDVWGQGTTVTVSS VL: EIVLTQSPGTLSLSPGERATLSCRASSSVSYMYWYQQKPGQAPRLLIYATSNLASGIPDRFSGSGSGTDFTLTISRLEPEDFAVYYCQQWEGNPRTFGGGTKLEIK | 0.065
5 | A184 (antibody, IgG1, V domains shown) VH: QVQLVQSGAEVKKPGASVKVSCKASGFDIQDTYMHWVKQRPGQGLEWIGRIDPASGHTKYDPKFQVRATITRDTSTSTAYLELSSLRSEDTAVYYCARSGGLPDVWGQGTTVTVSS VL: EIVLTQSPGTLSLSPGERATLSCRASSSVSYMYWYQQKPGQAPRLLIYATSNLASGIPDRFSGSGSGTDFTLTISRLEPEDFAVYYCQQWEGNPRTFGGGTKLEIK | 0.061
6 | A185 (antibody, IgG1, V domains shown) VH: QVQLVQSGAEVKKPGASVKVSCKASGFDIQDTYMHWVKQRPGQGLEWIGRIDPASGHTKYDPKFQVRATMTRDTSTSTAYLELSSLRSEDTAVYYCARSGGLPDVWGQGTTVTVSS VL: EIVLTQSPGTLSLSPGERATLSCRASSSVSYMYWYQQKPGQAPRLLIYATSNLASGIPDRFSGSGSGTDFTLTISRLEPEDFAVYYCQQWEGNPRTFGGGTKLEIK | 0.056
7 | A186 (antibody, IgG1, V domains shown) VH: QVQLVQSGAEVKKPGASVKVSCKASGFDIQDTYMHWVKQRPGQGLEWIGRIDPASGHTKYDPKFQVRATMTTDTSTSTAYLELSSLRSEDTAVYYCARSGGLPDVWGQGTTVTVSS VL: EIVLTQSPGTLSLSPGERATLSCRASSSVSYMYWYQQKPGQAPRLLIYATSNLASGIPDRFSGSGSGTDFTLTISRLEPEDFAVYYCQQWEGNPRTFGGGTKLEIK | 0.067
8 | A187 (antibody, IgG1, V domains shown) VH: QVQLVQSGAEVKKPGASVKVSCKASGFDIQDTYMHWVKQRPGQGLEWIGRIDPASGHTKYDPKFQVRVTITRDTSTSTAYLELSSLRSEDTAVYYCARSGGLPDVWGQGTTVTVSS VL: EIVLTQSPGTLSLSPGERATLSCRASSSVSYMYWYQQKPGQAPRLLIYATSNLASGIPDRFSGSGSGTDFTLTISRLEPEDFAVYYCQQWEGNPRTFGGGTKLEIK | 0.056
9 | A188 (antibody, IgG1, V domains shown) VH: QVQLVQSGAEVKKPGASVKVSCKASGFDIQDTYMHWVKQRPGQGLEWIGRIDPASGHTKYDPKFQVRVTITTDTSTSTAYLELSSLRSEDTAVYYCARSGGLPDVWGQGTTVTVSS VL: EIVLTQSPGTLSLSPGERATLSCRASSSVSYMYWYQQKPGQAPRLLIYATSNLASGIPDRFSGSGSGTDFTLTISRLEPEDFAVYYCQQWEGNPRTFGGGTKLEIK | 0.063
10 | A189 (antibody, IgG1, V domains shown) VH: QVQLVQSGAEVKKPGASVKVSCKASGFDIQDTYMHWVKQRPGQGLEWIGRIDPASGHTKYDPKFQVRVTMTTDTSTSTAYLELSSLRSEDTAVYYCARSGGLPDVWGQGTTVTVSS VL: EIVLTQSPGTLSLSPGERATLSCRASSSVSYMYWYQQKPGQAPRLLIYATSNLASGIPDRFSGSGSGTDFTLTISRLEPEDFAVYYCQQWEGNPRTFGGGTKLEIK | 0.076
11 | A190 (antibody, IgG1, V domains shown) VH: QVQLVQSGAEVKKPGASVKVSCKASGFDIQDTYMHWVKQRPGQGLEWIGRIDPASGHTKYDPKFQVRATITTDTSTSTVYLELSSLRSEDTAVYYCARSGGLPDVWGQGTTVTVSS VL: EIVLTQSPGTLSLSPGERATLSCRASSSVSYMYWYQQKPGQAPRLLIYATSNLASGIPDRFSGSGSGTDFTLTISRLEPEDFAVYYCQQWEGNPRTFGGGTKLEIK | 0.057
12 | A191 (antibody, IgG1, V domains shown) VH: QVQLVQSGAEVKKPGASVKVSCKASGFDIQDTYMHWVKQRPGQGLEWIGRIDPASGHTKYDPKFQVRATITTDTSTSTAYMELSSLRSEDTAVYYCARSGGLPDVWGQGTTVTVSS VL: EIVLTQSPGTLSLSPGERATLSCRASSSVSYMYWYQQKPGQAPRLLIYATSNLASGIPDRFSGSGSGTDFTLTISRLEPEDFAVYYCQQWEGNPRTFGGGTKLEIK | 0.057
13 | A192 (antibody, IgG1, V domains shown) VH: QVQLVQSGAEVKKPGASVKVSCKASGFDIQDTYMHWVKQRPGQGLEWIGRIDPASGHTKYDPKFQVRATITTDTSTSTVYMELSSLRSEDTAVYYCARSGGLPDVWGQGTTVTVSS VL: EIVLTQSPGTLSLSPGERATLSCRASSSVSYMYWYQQKPGQAPRLLIYATSNLASGIPDRFSGSGSGTDFTLTISRLEPEDFAVYYCQQWEGNPRTFGGGTKLEIK | 0.055
14 | A193 (antibody, IgG1, V domains shown) VH: EVQLVQSGAEVKKPGASVKVSCKASGFDIQDTYMHWVKQRPGQGLEWIGRIDPASGHTKYDPKFQVRATITTDTSTSTAYLELSSLRSEDTAVYYCARSGGLPDVWGQGTTVTVSS VL: EIVLTQSPGTLSLSPGERATLSCRASSSVSYMYWYQQKPGQAPRPWIYATSNLASGIPDRFSGSGSGTDFTLTISRLEPEDFAVYYCQQWEGNPRTFGGGTKLEIK | 0.055
15 | A194 (antibody, IgG1, V domains shown) VH: EVQLVQSGAEVKKPGASVKVSCKASGFDIQDTYMHWVRQRPGQGLEWIGRIDPASGHTKYDPKFQVRATITTDTSTSTAYLELSSLRSEDTAVYYCARSGGLPDVWGQGTTVTVSS VL: EIVLTQSPGTLSLSPGERATLSCRASSSVSYMYWYQQKPGQAPRPWIYATSNLASGIPDRFSGSGSGTDFTLTISRLEPEDFAVYYCQQWEGNPRTFGGGTKLEIK | 0.051
16 | A195 (antibody, IgG1, V domains shown) VH: EVQLVQSGAEVKKPGASVKVSCKASGFDIQDTYMHWVRQAPGQGLEWMGRIEPASGHIKYDPKFQGRATITTDTSTSTVYMELSSLRSEDTAVYYCARSGGLPDWWGQGTTVTVSS VL: EIVLTQSPGTLSLSPGERATLSCRASSSVSYMYWYQQKPGQAPRPWIYATSNLASGIPDRFSGSGSGTDFTLTISRLEPEDFAVYYCQQWEGNPRTFGGGTKLEIK | 0.056
